Target: FGF ligands
Experiment: cell-based or functional assay

MTT assay of HUVEC cells (cell growth / metabolic activity): < 50%
B1: FGFR1-CCD fusion protein (protein)
chain: RPSPTLPEQAQPWGAPVEVESFLVHPGDLLQLRCRLRDDVQSINWLRDGVQLAESNRTRITGEEVEVQDSVPADSGLYACVTSSPSGSDTTYFSVNVSDALPSSEDDDDDDDSSSEEKETDNTKPNPVAPYWTSPEKMEKKLHAVPAAKTVKFKCPSSGTPNPTLRWLKNGKEFKPDHRIGGYKVRYATGSIIMDSVVPSDKGNYTCIVENEYGSINHTYQLDVVERSPHRPILQAGLPANKTVALGSNVEFMCKVYSDPQPHIQWLKHIEVNGSKIGPDNLPYVQILKTAGVNTTDKEMEVLHLRNVSFEDAGEYTCLAGNSIGLSHHSAWLTVLEALEERPAVMLKEFMGYQGPPGPPGPPGIPGNHGNNGNNGATGHEGAKGEKGDKGDLGPRGERGQHGPKGEKGYPGIPGYCGPPGPPGPPGIPGNHGNNGNNGATGHEGAKGEKGDKGDLGPRGERGQHGPKGEKGYPGIPDYKDDDDKLQISSTVAAAHHHHHHV
